Source: paper PMC3905869

What was measured:
VirB FL [1] = target: T1, VirB FL (Shigella flexneri, UniProt P0A247 1-309); experiment: EMSA with self-competition
T1 sequence: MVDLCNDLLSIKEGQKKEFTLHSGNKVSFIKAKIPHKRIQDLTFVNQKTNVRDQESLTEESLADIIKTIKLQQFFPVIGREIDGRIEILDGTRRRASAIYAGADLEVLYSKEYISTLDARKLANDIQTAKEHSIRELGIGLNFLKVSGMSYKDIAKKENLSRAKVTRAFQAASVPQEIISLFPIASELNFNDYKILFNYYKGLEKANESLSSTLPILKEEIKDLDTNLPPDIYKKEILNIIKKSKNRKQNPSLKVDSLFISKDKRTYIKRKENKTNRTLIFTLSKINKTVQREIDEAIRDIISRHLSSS

VirB delta N [2] = target: T2, VirB delta N (Shigella flexneri, UniProt P0A247 129-309); experiment: EMSA with self-competition
T2 sequence: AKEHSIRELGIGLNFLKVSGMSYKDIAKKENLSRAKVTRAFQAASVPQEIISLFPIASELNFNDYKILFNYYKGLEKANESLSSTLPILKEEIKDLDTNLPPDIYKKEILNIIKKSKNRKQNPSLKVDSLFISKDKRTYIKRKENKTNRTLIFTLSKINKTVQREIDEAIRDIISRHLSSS

VirB delta C [3] = target: T3, VirB delta C (Shigella flexneri, UniProt P0A247 1-250); experiment: EMSA with self-competition
T3 sequence: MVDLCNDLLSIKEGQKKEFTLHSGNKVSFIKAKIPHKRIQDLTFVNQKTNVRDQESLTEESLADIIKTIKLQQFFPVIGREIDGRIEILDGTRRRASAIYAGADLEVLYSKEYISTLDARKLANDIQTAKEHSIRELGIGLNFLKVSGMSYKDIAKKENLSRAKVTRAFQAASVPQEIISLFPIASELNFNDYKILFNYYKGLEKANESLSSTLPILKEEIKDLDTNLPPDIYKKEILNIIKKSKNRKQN

VirB delta C [4] = target: T3, VirB delta C; experiment: competition
VirB core (HTH domain) = target: T4, VirB core (HTH domain) (Shigella flexneri, UniProt P0A247 129-250); experiment: fluorescence anisotropy
T4 sequence: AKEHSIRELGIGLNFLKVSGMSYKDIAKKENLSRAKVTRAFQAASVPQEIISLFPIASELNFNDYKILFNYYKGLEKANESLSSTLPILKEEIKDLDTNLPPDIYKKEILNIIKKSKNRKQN

VirB FL [5] = target: T1, VirB FL; experiment: fluorescence anisotropy
VirB delta C [6] = target: T3, VirB delta C; experiment: fluorescence anisotropy
VirB delta N [7] = target: T2, VirB delta N; experiment: fluorescence anisotropy

B1: icsB-wt (dsDNA)
DNA 1: AAACTCGTTTCATCATGAAATCCCAC
DNA 2: GTGGGATTTCATGATGAAACGAGTTT
binding result (VirB FL [1]): binds | binding result (VirB delta N [2]): binds | binding result (VirB delta C [3]): binds

B2: icsB-mut (dsDNA)
DNA 1: AAACTCGTTTCATCGCTGGGCCCCAC
DNA 2: GTGGGGCCCAGCGATGAAACGAGTTT
binding result (VirB delta C [4]): no binding

B3: FAM-icsB-wt-50bp (dsDNA)
DNA 1: CTCGTTTCATCATGAAATCCCACAAGATAAAGTGCCTGATGTATCAGGCT
DNA 2: AGCCTGATACATCAGGCACTTTATCTTGTGGGATTTCATGATGAAACGAG
Kd (VirB core (HTH domain)): 16 ± 3 nM | Kd (VirB FL [5]): 11 ± 0.3 nM | Kd (VirB delta C [6]): 139 ± 15 nM | Kd (VirB delta N [7]): 12 ± 0.3 nM
